From patent publication US20250049896A1 (Regeneron, published 2025)

Target: T1, Hmm-hTFRC (REGN2431), monomeric human transferrin receptor ectodomain with N-terminal hexahistidine-myc-myc … (human, UniProt P02786 89-760)
T1 construct: also called hmm.hTfR(C89-F763); His-myc-myc-hTFRC ecto
Assay: blocking ELISA, supernatant; Hmm-hTFRC binding to immobilized human holo-Tf
Procedure: In the blocking assay, the anti-human Transferrin goat IgG polyclonal antibody (anti-hTf pAb) was passively absorbed at a concentration of 2 micrograms/mL in PBS on a 96-well microtiter plate overnight at 4° C. […] To the same plate, human holo-Tf was then added at a concentration of 1 micrograms/mL in PBS+0.5% BSA for 2 hours at room temperature. […] After a 1-hour incubation, the mixtures were transferred to the human holo-Tf microtiter plates. […] The plates were developed using TMB substrate solution according to the manufacturer's recommended procedure and absorbance at 450 nm was measured on a Victor™ Multilabel Plate Reader.
The ability of the anti-TfR antibody to block human TFRC binding to human holo-Tf was evaluated using an ELISA-based blocking assay.

T1 sequence (P02786 other isoform, or with tags, fused parts or gaps): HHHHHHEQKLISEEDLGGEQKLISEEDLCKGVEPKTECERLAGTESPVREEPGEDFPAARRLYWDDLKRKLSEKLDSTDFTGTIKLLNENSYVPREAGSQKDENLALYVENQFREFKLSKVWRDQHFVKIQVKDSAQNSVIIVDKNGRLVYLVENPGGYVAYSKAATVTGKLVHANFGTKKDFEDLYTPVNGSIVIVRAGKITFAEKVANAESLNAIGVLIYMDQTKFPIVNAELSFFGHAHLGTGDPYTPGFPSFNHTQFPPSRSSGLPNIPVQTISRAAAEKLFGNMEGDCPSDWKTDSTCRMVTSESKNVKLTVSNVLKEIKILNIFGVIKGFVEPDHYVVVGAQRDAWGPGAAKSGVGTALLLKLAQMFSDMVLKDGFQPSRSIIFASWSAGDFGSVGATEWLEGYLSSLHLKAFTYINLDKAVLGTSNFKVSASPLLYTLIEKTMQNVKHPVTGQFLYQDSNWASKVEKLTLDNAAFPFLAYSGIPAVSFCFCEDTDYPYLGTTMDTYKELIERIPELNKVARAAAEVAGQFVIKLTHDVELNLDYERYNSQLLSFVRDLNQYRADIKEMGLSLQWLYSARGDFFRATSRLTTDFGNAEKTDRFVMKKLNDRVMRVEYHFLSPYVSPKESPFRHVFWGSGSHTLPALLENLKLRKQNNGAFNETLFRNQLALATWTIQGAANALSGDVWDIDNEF

| Binder | % Blocking [%] |
| --- | --- |
| 12802B Fab (Fab, V domains shown, CHO supernatant) VH: QVQLVESGGGLVKPGGSLRLSCAASGFTFSDYFMSWIRQAPGKGLEWVSYISSTGSTINYADSVKGRFTISRDNVKNSLYLQMTSLRVEDTAVYYCTRDNWNYEYWGQGTLVTVSS VL: EIVMTQSPATLSVSPGERATLSCRASQSVSINLAWYQQKPGQAPRLLIFVASTRATGIPARFSGSGSGTEFTLTISSLQSEDFATYYCQQYDIWPYTFGQGTKLEIKR | 15 |
| 12802B scFv (VK-VH) (scFv, CHO supernatant; Vk-3xG4S-Vh) scFv: EIVMTQSPATLSVSPGERATLSCRASQSVSINLAWYQQKPGQAPRLLIFVASTRATGIPARFSGSGSGTEFTLTISSLQSEDFATYYCQQYDIWPYTFGQGTKLEIKGGGGSGGGGSGGGGSQVQLVESGGGLVKPGGSLRLSCAASGFTFSDYFMSWIRQAPGKGLEWVSYISSTGSTINYADSVKGRFTISRDNVKNSLYLQMTSLRVEDTAVYYCTRDNWNYEYWGQGTLVTVSS | 17 |
| 12808B Fab (Fab, V domains shown, CHO supernatant) VH: QLQLQESGPGLVKPSETLSLTCTVSGESISSNTYYWGWIRQPPGKGLEWIGSIDYSGTTNYNPSLKSRVTISVDTSRNHFSLRLRSVTAADTAVYYCAREWGNYGYYYGMDVWGQGTTVTVSS VL: DIQMTQSPSSLSASVGDRVTINCRASQGIRNDLGWYQQKPGKAPKRLIYAASSLQSGVPLRFSGSGSGTEFTLTINNLQPEDFATYYCLSHNSYPWTFGQGTKVEIKR | 16 |
| 12808B scFv (VK-VH) (scFv, CHO supernatant; Vk-3xG4S-Vh) scFv: DIQMTQSPSSLSASVGDRVTINCRASQGIRNDLGWYQQKPGKAPKRLIYAASSLQSGVPLRFSGSGSGTEFTLTINNLQPEDFATYYCLSHNSYPWTFGQGTKVEIKGGGGSGGGGSGGGGSQLQLQESGPGLVKPSETLSLTCTVSGESISSNTYYWGWIRQPPGKGLEWIGSIDYSGTTNYNPSLKSRVTISVDTSRNHFSLRLRSVTAADTAVYYCAREWGNYGYYYGMDVWGQGTTVTVSS | 18 |
| 12808B scFv (VH-VK) (scFv) QLQLQESGPGLVKPSETLSLTCTVSGESISSNTYYWGWIRQPPGKGLEWIGSIDYSGTTNYNPSLKSRVTISVDTSRNHFSLRLRSVTAADTAVYYCAREWGNYGYYYGMDVWGQGTTVTVSSDIQMTQSPSSLSASVGDRVTINCRASQGIRNDLGWYQQKPGKAPKRLIYAASSLQSGVPLRFSGSGSGTEFTLTINNLQPEDFATYYCLSHNSYPWTFGQGTKVEIK | 19 |
| 12812B Fab (Fab, V domains shown, CHO supernatant) VH: QVQLVQSGAEVKKPGSSVRVSCKASRGTFSSYAISWVRQAPGQGLEWMGGIIPIFGTANYAQKFLARVTITADESTSTAYMELSSLRSEDTAVYYCAREKGWNYFDYWGQGTLVTVSS VL: DIQMTQSPPSVSASVGDRVTITCRASQGISSWLAWYQQKPGKAPKLLIYAASSLQSGVPSRFSGSGSGTDFTLTISSLQPEDFATYYCQQANSFPRTFGQGTKVEIKR | 14 |
| 12812B scFv (VK-VH) (scFv, CHO supernatant; Vk-3xG4S-Vh) scFv: DIQMTQSPPSVSASVGDRVTITCRASQGISSWLAWYQQKPGKAPKLLIYAASSLQSGVPSRFSGSGSGTDFTLTISSLQPEDFATYYCQQANSFPRTFGQGTKVEIKGGGGSGGGGSGGGGSQVQLVQSGAEVKKPGSSVRVSCKASRGTFSSYAISWVRQAPGQGLEWMGGIIPIFGTANYAQKFLARVTITADESTSTAYMELSSLRSEDTAVYYCAREKGWNYFDYWGQGTLVTVSS | 12 |
| 12816B Fab (Fab, V domains shown, CHO supernatant) VH: QVQLVESGGGLVKPGGSLRLSCAASGFTFSDYYMNWIRQAPGKGLEWVSYISSSGTTIYYADSVKGRFTISRDNAKKSLYLEMNSLRAEDTAVYYCAREGYGNDYYYYGIDVWGQGTTVTVSS VL: not shown | 14 |
| 12833B Fab (Fab, V domains shown, CHO supernatant) VH: QVQLVESGGGVVQPGRSLRLSCAASGFTFSSFGMHWVRQAPGKGLEWVIFISYDGSDKYYADSVKGRFAISRDSSKNTLYLQMNSLRAEDTAVYYCAKENGILTDSYGMDVWGQGTTVTVSS VL: not shown | 64 |
